Test results: US20100143940A1, “(3R)-HYDROXYACYL-ACP DEHYDRATASE ENZYMES USED IN THE BIOSYNTHESIS OF MYCOLIC ACIDS AND USE OF SAME FOR SCREENING ANTIBIOTICS” (priority 2007, published 2010)

Tests used:
2-trans-octenoyl-ACP [1] = molecular target: 2-trans-octenoyl-ACP (UniProt P0A6A8)
[2] = molecular target: T1, 2-trans-octenoyl-ACP, P0A6A8
T1 chain: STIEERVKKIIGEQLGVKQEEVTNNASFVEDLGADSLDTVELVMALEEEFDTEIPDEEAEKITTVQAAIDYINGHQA

[3] = Hydratase activity monitored by spectrophotometry at 263 nm, control experiments of the isomerase test; assay type: biochemical; settings: 2-trans-decenoyl-CoA 10 μM; Rv0635-Rv0636 80 nM or Rv0636-Rv0637 543 nM; 100 mM sodium phosphate pH 7.0, 25° C.
Procedure: (§1) These reactions are monitored by spectrophotometry at 263 nm by means of a thermostated Uvikon 923 spectrophotometer (Kontron Instruments). They are carried out in a quartz cuvette (optical path of 1 cm) in a total volume of 700 μl at 25° C. The reaction mixture contains 100 mM sodium phosphate buffer, pH 7.0, and varying concentrations of substrates. After equilibration of the base line on the reaction mixture in the absence of the enzyme, the reactions are triggered by the addition of enzyme, and then monitored for 1.5 to 5 min. The reaction rate corresponds to the initial rate measured by plotting the tangent of the curve OD=f(time) at time zero.
The conversions corresponding to the hydration reaction and to the dehydration reaction are associated, respectively, with a decrease and with an increase in the absorbance at 263 nm, linked to the double bond conjugated to the carbonyl. A variation in OD263 of 0.67 corresponds to a variation in concentration of 100 μM.
(§2) The ability of the proteins to catalyze the isomerization reaction was studied in the presence of 3-cis-decenoyl-CoA (10 μM) and of Rv0635-Rv0636 enzyme (80 nM) or Rv0636-Rv0637 enzyme (543 nM). […] The reactions were monitored at 263 nm, where the increase in absorbance results from the conversion of the 3-cis-decenoyl-CoA into 2-trans-decenoyl-CoA.

2-trans-octenoyl-ACP [4] = assay: Study of the ACP-dependency, hydration of the ACP derivative at 263 nm; assay type: biochemical, E. coli; settings: 2-trans-octenoyl-ACP 2 μM; Rv0635-Rv0636 80 nM, Rv0636-Rv0637 311 nM, Rv0636 alone 311 nM
[5] = Study of the ACP-dependency, hydration of the CoA derivative at 263 nm; assay type: biochemical; settings: 2-trans-octenoyl-CoA 2 μM; compared with control experiment (no enzyme)
Procedure: as §1
The activities of the enzymes Rv0635-Rv0636 (80 nM), Rv0636-Rv0637 (311 nM) or Rv0636 alone (311 nM) were compared in the presence of 2-trans-octenoyl-ACP (2 μM) or of 2-trans-octenoyl-CoA (2 μM).

[6] = Isomerase activity, conversion of 3-cis-enoyl into 2-trans-enoyl, monitored at 263 nm; assay type: biochemical; settings: 3-cis-decenoyl-CoA 10 μM; Rv0635-Rv0636 80 nM or Rv0636-Rv0637 543 nM
Procedure: as §1
As in certain FAS-II systems described, the dehydration step can be catalyzed either by a (3R)-hydroxyacyl-ACP dehydratase, or by a (3R)-hydroxyacyl-ACP dehydratase/isomerase of FabA type which, in vivo, converts the 2-trans-enoyls, formed by the dehydration step, into 3-cis-enoyls. […]
as §2

[7] = Substrate specificity, 2-trans-enoyl-CoA of various chain lengths; assay type: biochemical
Procedure: as §1
The substrate specificity was studied in the presence of 2-trans-enoyl-CoA of various chain lengths (C4-C20). The initial rates were measured and compared at a very low substrate concentration in order to reduce as much as possible the solubility problems encountered with these amphiphilic compounds. […]
The tests were carried out in 100 mM sodium phosphate buffer, pH 7.0, in the presence of 3-hydroxybutyryl-CoA (25 or 75 μM) or of 2-trans-octenoyl-CoA (25 μM) or of crotonoyl-CoA (25 μM), and of enzyme (Rv0635-Rv0636: 80 nM; Rv0636-Rv0637: 543 nM). […] After addition of the enzyme, the reactions were monitored by spectrophotometry at 263 nM for 1.5 min. […]

Rv0635-Rv0636 heterodimer
specific activity (hydration followed at 263 nm), 2 µM substrate, 80 nM enzyme (2-trans-octenoyl-ACP [1]): 0.28 µmol/min/mg

B1: Rv0636-Rv0637 heterodimer (protein)
chain 1: HHHHHHMALREFSSVKVGDQLPEKTYPLTRQDLVNYAGVSGDLNPIHWDDEIAKVVGLDTAIAHGMLTMGIGGGYVTSWVGDPGAVTEYNVRFTAVVPVPNDGKGAELVFNGRVKSVDPESKSVTIALTATTGGKKIFGRAIASAKLA
chain 2: MALKTDIRGMIWRYPDYFIVGREQCREFARAVKCDHPAFFSEEAAADLGYDALVAPLTFVTILAKYVQLDFFRHVDVGMETMQIVQVDQRFVFHKPVLAGDKLWARMDIHSVDERFGADIVVTRNLCTNDDGELVMEAYTTLMGQQGDGSARLKWDKESGQVIRTA
specific activity (hydration followed at 263 nm), 2 µM substrate [2]: 0.047 µmol/min/mg of protein

B2: Rv0636-Rv0637: recombinant heterodimeric (3R)-hydroxyacyl-ACP dehydratase of the M. tuberculosis H37Rv FAS-II system, Rv0636 plus Rv0637 (protein)
chain 1: B1 chain 1
chain 2: B1 chain 2
specific activity [3]: 0.02 μmol/min/mg of protein
specific activity in the presence of 2-trans-octenoyl-ACP (2-trans-octenoyl-ACP [4]): 0.047 µmol/min/mg
activity in the presence of 2-trans-octenoyl-CoA [5]: not significant
isomerase activity [6]: do not exhibit any isomerase activity
activity on C12-C20 trans-2-enoyl-CoAs at low substrate concentration ([7]; 2.5 μM substrate): no activity could be detected
activity in the presence of short-chain (C4-C8) substrates ([7]; 2.5 or 25 μM 2-trans-enoyl-CoA, Rv0635-Rv0636 80 nM, Rv0636-Rv0637 543 nM): inactive

B3: Rv0636 homodimer: recombinant Rv0636 protein of M. tuberculosis H37Rv (SEQ ID No. 2) carrying the hydratase 2 motif, tested alone (protein, listed as Mycobacterium tuberculosis)
chain: MALREFSSVKVGDQLPEKTYPLTRQDLVNYAGVSGDLNPIHWDDEIAKVVGLDTAIAHGMLTMGIGGGYVTSWVGDPGAVTEYNVRFTAVVPVPNDGKGAELVFNGRVKSVDPESKSVTIALTATTGGKKIFGRAIASAKLA
modifications: homodimer
specific activity in the presence of 2-trans-octenoyl-ACP (2-trans-octenoyl-ACP [4]): no activity
